# “Also recorded” adds a separate entry of the source.
# B1: EBP1: ErbB3 binding protein (SEQ ID NO: 2), AR corepressor, here ectopically expressed in cancer cells by stable transfection of an expression plasmid (protein, listed as Homo sapiens)
# chain: MSGEDEQQEQTIAEDLVVTKYKMGGDIANRVLRSLVEASSSGVSVLSLCEKGDAMIMEETGKIFKKEKEMKKGIAFPTSISVNNCVCHFSPLKSDQDYILKEGDLVKIDLGVHVDGFIANVAHTFVVDVAQGTQVTGRKADVIKAAHLCAEAALRLVKPGNQNTQVTEAWNKVAHSFNCTPIEGMLSHQLKQHVIDGEKTIIQNPTDQQKKDHEKAEFEVHEVYAVDVLVSSGEGKAKDAGQRTTIYKRDPSKQYGLKMKTSRAFFSEVERRFDAMPFTLRAFEDEKKARMGVVECAKHELLQPFNVLYEKEGEFVAQFKFTVLLMPNGPMRITSGPFEPDLYKSEMEVQDAELKALLQSSASRKTQKKKKKKASKTAENATSGETLEENEAGD
# modifications: FLAG tag
# What was measured:
# AR-regulated genes = experiment: Validation by real-time RT-PCR, Western blot and ELISA in LNCaP EPB1 transfectants; type: cell-based, human
# Protocol: Real-Time Quantitative Reverse-Transcription PCR: The method of […] et al. (Nakanishi et al., 2003, Quantitative Analysis of Breast Cancer Resistance Protein and Cellular Resistance to Flavopiridol in Acute Leukemia Patients, Clin. Cancer Res., 9: 3320-3328) was used as previously described. […] Real-time quantitative RT-PCR was then performed on the LightCycler (Roche, Indianapolis, Ind.) platform to determine the relative mRNA levels of EPB1, AR, kallikrein-2 and POV-1. The following forward and reverse primers were selected using Primer Express software and synthesized by Core Laboratory of University of Maryland School of Medicine: EPB1, sense: [NT] ID NO: 4) and antisense: [NT] ID NO: 5), sense: [NT] ID NO: 6) and antisense: [NT] ID NO: 7), Kallikrein-2, sense: [NT] ID NO: 8) and antisense: [NT] ID NO: 9), POV-1, sense: [NT] ID NO: 10) and antisense: [NT] ID NO: 11), Actin, sense: [NT] ID NO: 12) and antisense […] ID NO: 13). […] Target mRNA values were normalized using actin mRNA as an internal control. The relative quantitation of gene expression was performed using the comparative ΔΔ Ct (threshold method) using β-actin as an internal control ([…] et al., 2002, The Nonsteroidal Anti-Inflammatory Drug Sulindac Causes Down-Regulation of Signal Transducer and Activator of Transcription 3 in Human Oral Squamous Cell Carcinoma Cells, Cancer Research, 62:1004-1007). Western Blot Analysis: Briefly, total cell extracts were prepared by direct lysis of cells with buffer containing 50 mM Tris-HCl (pH 7.4), 1 mM EDTA, 250 mM NaCl, 1% Triton® X-100, 0.5 mM dithiothreitol (DTT) and 1 mM phenylmethylsulfonyl (PMSF). Protein concentrations were measured using a detergent compatible kit (BioRad, Hercules, Calif.). Proteins were resolved by SDS-PAGE and analyzed by Western blotting as described (Xia et al., 2001, Analysis of the Expression Pattern of EPB1, an ErbB-3-Binding Protein, Biochem. Biophys. Res. Commun., 289:240-244). The AR antibody was from Santa Cruz Biotechnology (Santa Cruz, Calif.), the EPB1 antibody from Upstate (Lake Placid, N.Y.), the polyclonal antibody to actin from Sigma (St. Louis, Mo.), and the POV-1 antibody was a gift. Measurement of PSA levels: Serum PSA levels were determined using a PSA ELISA kit from DSL, Inc (Webster, Tex.). […] Following a 1 h incubation and extensive washing of the plate, the wells were treated for 30 min with a second anti-PSA antibody labeled with horseradish peroxidase. After washing, the wells were treated with a tetramethylbendizine substrate for 10 min, and absorbance was read at 450 nm. The results of the microarray analysis were validated using real-time quantitative reverse-transcription PCR, Western blot, and ELISA methods. […] PSA secretion in the conditioned media of EPB1 and vector control cells was assessed by ELISA.
# C81 cells = experiment: Growth of C81 EBP1 transfectants (monolayer, soft agar, androgen-depleted media); type: cell-based, human
# Protocol: FIG. 4A-C. EBP1 restoration ameliorates the hormone refractory phenotype A. (Left panel) Growth in monolayer culture. Equal numbers (5×10^4) of vector or EBP1 stably transfected cells were plated at Day 0 in complete media and viable cell numbers determined at the indicated times. Each point represents mean±S.E. of 3 wells. Representative of 3 experiments (Right panel). Colony growth in soft agar. C81 cells stably transfected with either pcDNA or EBP1 were plated in soft agar at the cell densities indicated and colony numbers assessed at Day 10. Each point represents mean±S.E. of 3 dishes. Data is representative of 3 experiments. B. (Left Panel) Response of EBP1 and vector transfected C81 cells to dihydrotestosterone (DHT). EBP1 and vector control C81 transfected cells and early passage LNCaP cells were plated in complete media at 5×10^3 cells/well in 96 well plates for one day. The next day, cells were switched to steroid reduced medium for two days as described in the Materials and Methods. DHT was then added at the indicated concentrations. Cells were refed media every 3 days. Total cell numbers were determined seven days later by MTT assays. Each point represents mean±S.E. of 6 wells. Data is representative of two experiments. (Right Panel) Effect of Bicalutamide on DHT stimulated growth. Cells were plated as described in the Materials and Methods. After 2 days in steroid reduced medium, cells were fed with fresh steroid reduced medium with or without 10 μM bicalutamide (Casodex) in the presence or absence of 10 nM DHT. Total cell numbers were assessed 7 days later by MTT assay. Cells were refed media every 3 days. The data shown are mean±S.E. of six wells. Similar results were found in 2 independent experiments. C. EBP1 expression sensitizes C81 cells to chemotherapeutic drugs. […] Total cell numbers were determined by MTT assays 5 days later. […]
# Western Blot Analysis. […] For soft agar growth assays, increasing concentrations of cells (as indicated) were plated in 35 mm Petri dishes in 0.3% agar in complete media and colonies were counted after 10 days of incubation (21). […]
molecule,measurement,setting,value
B1,POV-1 mRNA decrease,AR-regulated genes; LNCaP EPB1 transfectants,about two-fold
same,POV-1 protein decrease,AR-regulated genes; LNCaP EPB1 transfectants,about two-fold
same,kallikrein-2 mRNA expression decrease,AR-regulated genes; LNCaP EPB1 transfectants,approximately 40%
same,AR protein decrease,"AR-regulated genes; LNCaP EPB1 transfectants, Western blot",more than five-fold
same,AR mRNA down-regulation,"AR-regulated genes; LNCaP EPB1 transfectants, real-time PCR",more than 2 fold
same,secreted PSA protein downregulation,"AR-regulated genes; conditioned media of LNCaP EPB1 transfectants vs controls, ELISA",10 fold
same,decrease of colony growth in soft agar,"C81 cells; C81, highest cell concentration tested",approximately 50%
same,growth rate in complete media,"C81 cells; C81 EBP1 transfectants vs vector control, p<0.05",significantly decreased
same,growth in the absence of androgens relative to vector controls,"C81 cells; C81 EBP1 transfectants, androgen depleted media",reduced to one third; also recorded: reduced by ⅔

# — patent publication US7838495B2, “Compositions and methods of use of EPB1, and ErbB3 binding protein” (University of Maryland, Baltimore, priority 2007, dated 2010)
